Measured values as given in paper doi:10.1101/2023.02.23.529712.
No end group written: not given here.

Biological target: recombinant rat arrestin-2 (rat), P29066
Experiment: MST + fluorescence polarisation

Sequence of recombinant rat arrestin-2 (rat), P29066 (P29066 whole entry): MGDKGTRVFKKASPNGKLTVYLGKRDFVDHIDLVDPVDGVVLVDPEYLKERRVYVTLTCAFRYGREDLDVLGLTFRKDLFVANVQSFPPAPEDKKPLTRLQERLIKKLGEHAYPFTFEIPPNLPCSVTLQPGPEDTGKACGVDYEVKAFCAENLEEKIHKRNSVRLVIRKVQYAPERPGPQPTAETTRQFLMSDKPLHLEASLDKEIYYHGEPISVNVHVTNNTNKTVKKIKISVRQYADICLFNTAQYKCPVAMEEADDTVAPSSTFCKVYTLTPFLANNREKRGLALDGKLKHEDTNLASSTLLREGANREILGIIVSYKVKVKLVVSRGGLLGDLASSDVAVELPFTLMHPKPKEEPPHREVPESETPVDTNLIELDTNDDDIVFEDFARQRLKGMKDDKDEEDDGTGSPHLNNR

- Kd: 200 µM
B1: phosphomimetic GHSR C-terminus, Q92847 339-366 (domain or fragment)
chain: GFEPFSQRKLEELKDESSRAWTEEEINE
modifications: not fully specified
